Measured values published in the nanobody polyreactivity screen of Harvey et al. (2022).

Test: yeast display, Sf9 membrane polyspecificity reagent, FACS + sequencing; frameworks hold sequencing errors
In short: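 Nanobodies came from a synthetic yeast display library in Saccharomyces cerevisiae BJ5465, induced with galactose for 36–48 hours and stained for 1 hour at 4 °C with 10% biotinylated, detergent-solubilized Sf9 membrane reagent. Cells were enriched on streptavidin microbeads and then FACS-sorted, with low and high (top ~1%) gates set on anti-HA fluorescence for expression and streptavidin fluorescence for reagent binding. Each polyreactivity label reflects the gate a clone came from. Genes were amplified by colony PCR, sequenced by MiSeq 2 × 250 and filtered by CDR length.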

| Sequence | polyreactivity (PSR sort gate) |
| --- | --- |
| KVQLVESGGGLVQAGGSLRLSCAASGRIFGRNAMGGYRQAPGKERELVAAINVSSGGTYYADSVKGRFTISRDNAKNTVYLQMNSLKPEDTAVYFCAARARWAGLRYTRYYYWGQGTQVTVSS | high polyreactivity |
| KVQLVESGGGLVQAGGSLRLSCAASGRILVYNVMGWYRQAPGKEMEFVAAITSRDTSTYYADSVKGRFTISRDNAKNPVYLQMNSLKPEDTAVYYCAVRVGARVRYYSWGQGTQVTVSS | high polyreactivity |
| KVQLVESGGGLVQAGGSLRLSCAASGRTFPYYVMGWYRQAHGKERELVAAIDVGGGSTYYADSVKGRFTISRDNAKNTVYLQMNSLKPEVTAVYYCAAQVDYLAHYGYWGQGTQVTVSS | low polyreactivity |
| KVQLVESGGGLVQAGGSLRLSCAASGYIFSYYAMGWYRQAPGKERELVAAITASGGRTYYADSVKGRFTISRDNAKNTVYLQMNSQKPEDTAVYYCARASGIILQGQLVRWYRYNYLGQGTQVTVSS | high polyreactivity |
| KVQLVESGGGLVQAGGSLRLSCAHSGYIFGYYAMGCYRQAPGKERELVAAISSGGNTNYADSVKGRYTISRDNAKTTVYLQMNSLKPEDTAVNYCATRDRYKRIRYDYWGQGTQVTVSS | high polyreactivity |
| KVQLVESGGGLVQAGGSLRLSCPASGFTFKSYTMAWSSQAPGKERELVAAISRRDGSTYYADSVKGRFPISRDNAKNTVYFQMNSLKPEDTAVYYCNAYTYGSEFDYWGQGTQVTVST | high polyreactivity |
| KVQLVESGGGLVQARGSLRLSCAASGRIIRYYVMGWYRQAPGKERELVASISWRGTSTYYADSVKGRFTISRDNAKNTVYLQMNSLKPEDTAVYYCNAARPGKNYDSWGQGTQVTVSS | high polyreactivity |
| KVQLVESGGRVVQAGGSLRLSCAASGSIFGYNDMGWYRPAPGKERELVATITWGGGRTRYADSVKGRFTISRDNAKKTVYLQMNSLKPEETAVYYCARDRGKITPYDYWGQGTQVTVSS | low polyreactivity |
| KVQLVESGSGLVQAGGSHSISCAASGGTIACYVMGWYRPAPGKEREFVATISWSGTSTYYADSVKGRFTISRDNAKNTVDLLMYSLKPEDTAVFYCNKPGSSWPDFYSYNYWGLGTQVTVSS | low polyreactivity |
| LGQLQESGGGLVQAGGSLRLSCAASGDIFDADIMGWYREAPGKEREHVASITDGGSTNYADSVKGRFTISRDNAKNTVYLPMNSLKPENTAVLYCAAIAYPDLPTYFDYDSDYFDWGQGTQVTVSS | low polyreactivity |
| LQLVESGGGLVQAGGSLRLTSAASGSTFHRYAMGWYRQSPGKERELVAAISSRGGSTYYADSVKGRFTISRDNAKYTVYLQMNSLKPEDTAVYYCAVYGGRSGVPFDSMDYWGQGTQVTVTS | high polyreactivity |
| LVHLQESGGGLVQAGGSLRLSCAASGTISPAGYMGWYRPAPGKERELVASINVGGSTNYADSVKGRFTISRDNAKNTVYLQLNCLKPEVNAVYYCAVWGRYRLQLSYWGQGTQVTVSS | low polyreactivity |
| LVLLVESGGGLVQAGGSLRLSCAASGFSFACYGMGWYRQAPGNDRELVAALSWSGGRTYYADSVTGRFTISRDNAKNTVYLQMNSLKPEDTAVDYCYAYWNPASKYDFWGQGTQVTVTS | high polyreactivity |
| LVQAGGSLRLSCAASVNTSGKNAMGWYRQAPGKERELVAAISSAGSTNYADSVKGRFTISRDNAKNTVYLQMNSLKPEDTAVYYCNAVRRLATVKTYRFNYWGQGTQVTVSS | low polyreactivity |
| LVQLQDSGDGLVQAGGSLRLSCAASGNIFDADIKGWYRQAPGKERELVASIGIGGTTYYADSVKGRFSISRDNEKNTVYLQMNSLKPEDTAVYYCAARYLYYAYSYWGQGTQVTVSS | low polyreactivity |
| LVQLQESGGGLVQAGGSLRLSCAASGTISPGGNMGWYRQAPGKERELLASINVGGSTNYADSVKGRFTISRDNAINTVFLQMNSLKPDDNAVFYCAVWGRNRLQLSYWGQGTQVTVSS | low polyreactivity |
| LVQLVESGGGLVQAGGSLRLSCAASGIIFRFYDMGWYRQAPGKERELVAAISWDGTSTYYADSVKGRFTISRDNAKNTVSLQMNSQKPEDTAVYYCAADWVGSPWWYLWYGYWGQGTQVTVSS | high polyreactivity |
| LVQLVESGGRLVQAGGSLRLTCAATGSIFDGNAKGWYRQAPGKDRELVADISRGGSTYYADSVKGRFTISSDNAKNTVYFQLNSLKPEDTAVYDCTVEFFFWPYEYGYWGQGTQVTVSS | low polyreactivity |
| LVQLVESGVGLVHAGRSLRLSCAASGSIFPYYTMGWYRPAPGKERELVAAISGSGGSTYYADSVKGRFTISRDNAKNTVYLQMNSLKPEYTAVYYCAAYRRTWFDYWGQGTQVTVSS | high polyreactivity |
| LVQQVESGGGLVQAVGTLRISCAASGQILYSYAMGWYRQAPGKERELVAAITGGVSTNYADSVKGRFTISRDNAKNTVYLQMNSLKPEDTAVYYCNVELWEYSYIDEYWGQGTQLTVSS | low polyreactivity |
| PDQLVESGGGLVQAGGSLRLSCAASGLNFYDNMGWYIQATGKERELVSAISSSGGSTSYADSVKGRFTISRDNAKNTVYLQMNSLKPEDTAVYYCAADSSPAYLGFVGFDYWGHGTQVTVSS | low polyreactivity |
| PLQLVESGGGLVQAGGSLRLSCAASGRTFRATTMGWYRQAPGKERELVAAISHSGGSTYYADSVKGRFTISRDNAKNTVYLQMYSLKPEDTAVYYCATDGGSYSWASPRVDYWGQGTQVTVSS | low polyreactivity |

| Sequence | polyreactivity (PSR sort gate) |
| --- | --- |
| PVQLVDSGGGLVQAGGSLRLSCAASGSIFYRNALGWYRQAPGKERELVAAISGRGGSTNYADSVKGRFTISRDNAKNTVYLQMNSLKPEDTAVYYCNRYGVANILVRGGYWGQGTQVTVSA | high polyreactivity |
| PVQLVESGGGLVQAGGPLRLSCAASGFNITSYVMGWYRPAPGKERELVAAISAGGGSTYYADSVKGRFTISRDNAKNTVYLQMNSLIPDDTAVYYCAADPLYEQIYYAIYHYNDGYDYWGQGTQVTVSS | high polyreactivity |
| PVQLVESGGGLVQAGGSHRLSCAASGSIFYFNAMGWYRQAPGKERELVAVITDRGSTYYSDSVKGRFTISRDNAKNTVYLQMNSLKPEDTAVYYCAAQTPGVYLRQIGGYYYWGQGTQVTVSS | low polyreactivity |
| PVQLVESGGGLVQAGGSLPLSCAASGRTFPFNAMRWYRQAPGKERELVATINYRGGSTYYADSVKGRFTISRDNAKNTVYLQMNSLKPEDTAVYYCAAGKIGRYHYDYWGQGTQVTVSS | high polyreactivity |
| PVQLVESGGGLVQAGGSLRLSCAACGGIFPGNAMGWYRQAPGKVRELVATISYSGGSTYYADSVKGRLTISRDNAKNTVYLQMNSLKPEATAVYYCAARGYKPTRSRRTEYGYWGQGTQVTVSS | high polyreactivity |
| PVQLVESGGGLVQAGGSLRLSCAASGFTFANYAMGWYRQAPGKERELVAAISRGGTSTYYADSVKGRFTISRDNAKNTVYFQMNSLKPEDTEVYFCNAVKVGYSLYDYWGQGTQVTVSS | high polyreactivity |
| PVQLVESGGGLVQAGGSLRLSCAASGITIYYYGMGWYRQPPGKERELVAAITTGVNTNYADSVKGRFTISRDNAKITVYLQMNSLKPEDTAVYYCAAEYRIPYFFTYGYWGQGTQVTVSS | high polyreactivity |
| PVQLVESGGGLVQAGGSLRLSCAASGRIFSSYTMGWNIQAPGKERELVAAISWRGGSTYYADSVKGRFTISRDNAKNTVYLLMNSLKPEDTAVYYCAADSRSHPGDYWGHGTQVTVSS | low polyreactivity |
| PVQLVESGGGLVQAGGSLRLSCAASGSTFAYNAMGWYRQAPGKERELVAAISWSGGTTYYADSVKGRFTISPDNAKNPVYLQMNSLKPEDTAVYYCAADVYLNRRQRMYYWGQGTQVTVSS | high polyreactivity |
| PVQLVESGGGLVQAGGTLRLSCDATGITFKLNAMGWYRQAPGKERELVAAITSTGGSTYYADSVKGRFTISRDNAKNTVYLQMNSLNPEDTAVYYCAADRYSYIFYYYWSYDYWGQCTQVTVSS | high polyreactivity |
| PVQLVESGGGVVQAGGSLRVSCAASGSIFYVYAMGWYRQAGGKEWELVAAINPSGGSTFYADSVKGRFTISRDNAKTTDYLQMNSLTPEHTAVYYCAAERYRYRSTDTMGYWGQGTQVTVSS | low polyreactivity |
| PVQLVESGGVLVQAGGILRLSCAASGFTFYLYGMGWYRRAPGKERELVAAISRSGGSTYYADSVKGRFTISRDNAKNTVYLQMNSLKPEDPAVYACAVDKQGSRRRIISDEMYYWGQGTQVTVSS | high polyreactivity |
| PVQLVESGGVLVQAGGSLRLSCAASGFTFWLYAMGWYRQAPGNEREFVAAISPSGGSTYADSVKGRFTLSRDNAKNTVYLPMNRLKPEDTAVYYCNDGYLLYYDYHLFYWGQGTQLTVSS | low polyreactivity |
| PVQLVETGGGLVQAGGSLRLSCAASGRTFYRYAMGWYRQAPGKERELVAAITRRVDSTSYADSVKGRFTISRDNAKNTVYLQMNSLKPEDTAVYYCATLVQGSVYGVYGGGYWGQGTQVTVSS | low polyreactivity |
| QAQLVESGGGLVQAGGSLRLSSAASGFIFWGNAMGWYRQAPGKERELVAGIRSLGGTTSYADSVKGRFTISRDNAKNTVYLQMNSLKPEDTAVYYCAAGYGAEFDYWGQGTQVTVSS | low polyreactivity |
| QDHLVESGEGLVQAGGSLRLSCAASGFVFAYYTMGWYRTAPGKERELVAAISRGGGRTYYADSVKGRFTISRDNAKNTVYLQMNSLKPEDTAVYYCAARNGPSIKFAVTGMDYWGQGTQVTVSS | high polyreactivity |
| QDHLVESGGGLVQAGGSLRLSCAASGSPFPSYAMGWYRQAPGKERELVAAINSGGGTTYADSVQGRFTISRDKAKNTVYLQMNSLKPEDTAVYYCARGPLSWHSYVEAEYGYWGQGTQVTVSW | low polyreactivity |
| QDHLVESVGGLVQAGRSLRLTCAASGGTFYYKTMGWYRQAPGKESQLVAAITSGTSTNYADSVKGRFTISRDNAKNTVYLQMNSLKPEDTAVYYCAADPDADDPRRGYDYWGQGTQVTVSS | low polyreactivity |
| QDKLVESAGGLVQAGGSLRLSCADSGSIFPFNAMALNRQATGKVREMVASITSGGTTYYADSLKGRFTISRDNAKNTVYLQMNSLKPEDTAVYYFAGDWVWRVLNSYGVRYDYWGQGTQVTVSS | low polyreactivity |
| QDKLVESGGGLVQAGASLRLTCAASGLIIYRNAMGWYIQAPGKERELVATISRRGGRTYYADSVKGRFTISRDNAKNNVYLQMNSLKPEDTAVYYCIADDYRSRGGYDSWGQGTQVTVSS | high polyreactivity |
| QDKLVESGGGLVQAGGSLRLSCAASGSILGGYAMGWNRPAPGKAREFVAAISRRGASTFYADSVKGRFTISRDNAKNTVYLQMNCLKPEDTAVYYCNARAYGRIDGHSATFGYWGQGTQVTVSS | high polyreactivity |
